In publication PMC8294578:

Key:
[1] = target: factor V (FV) (human (endogenous in human plasma))
[2] = target: mannan binding lectin-associated serine proteases (MASPs) (human (endogenous in human serum))
[3] = target: mannan-binding lectin (MBL) (human (endogenous in human serum)) (UniProt P11226)
[4] = target: mannan-binding lectin (MBL) (human (endogenous in human serum)) (UniProt P11226); remark: listed apart in the source

Sequence of UniProt P11226 (P11226 21-248): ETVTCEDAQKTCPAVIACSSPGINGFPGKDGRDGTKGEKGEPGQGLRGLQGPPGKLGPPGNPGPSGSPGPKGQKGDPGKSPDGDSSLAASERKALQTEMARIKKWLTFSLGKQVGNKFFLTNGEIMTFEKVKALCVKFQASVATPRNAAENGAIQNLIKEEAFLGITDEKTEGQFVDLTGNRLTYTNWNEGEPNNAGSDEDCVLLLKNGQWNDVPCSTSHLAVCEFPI

Molecule	decrease of prothrombinase activity in the FV(a) inhibition assay (1/1000 diluted human plasma, 20 pM FXa, 100 nM peptide) [1] [% decrease]	EC50 of inhibition of lectin pathway activation in human serum (mannan-coated wells, ELISA, C4b deposition) [2] [µM]	EC50 of inhibition of lectin pathway activation in human serum (mannan-coated wells, ELISA, C4b deposition) [3] [µM]	EC50 of inhibition of MBL deposition on mannan-coated wells from human serum (ELISA, anti-MBL antibody) [4] [µM]
D70-L104 Salp14 (from UniProt Q95WY7 91-125) (peptide)	40	17	–	–
tick salivary lectin pathway inhibitor (TSLPI) from Ixodes scapularis (natural protein)	–	–	25	90
BaSO4-adsorbing protein 1 (BSAP1) from Ornithodoros savignyi (natural protein) MDSEFPCPRKQQPAGNSECSYYCEMNGQWKLGKFQNGARCDYNAVKDGVCNEGLCYASGDSASNTQNQGGSRRQENEDQGDDEWDRK	–	–	8	26
